Reference: CN117466995A (YIDAO BIOTECHNOLOGY SUZHOU CO LTD, dated 2024)
Several values for one entry are separate records, joined by “and”; a condition that tells them apart may be missing. Equal values may be shown once.

Assays:
[1] = biological target: T1, HPV45型衣壳蛋白L1病毒样颗粒(VLP)抗原 (HPV 45型) (UniProt P36741); assay: sandwich ELISA, rabbit pAb R163 capture 1:500, mAb 1:20000; antigen 13.3 ug/ml, 2.5-fold series, step 10
T1 sequence: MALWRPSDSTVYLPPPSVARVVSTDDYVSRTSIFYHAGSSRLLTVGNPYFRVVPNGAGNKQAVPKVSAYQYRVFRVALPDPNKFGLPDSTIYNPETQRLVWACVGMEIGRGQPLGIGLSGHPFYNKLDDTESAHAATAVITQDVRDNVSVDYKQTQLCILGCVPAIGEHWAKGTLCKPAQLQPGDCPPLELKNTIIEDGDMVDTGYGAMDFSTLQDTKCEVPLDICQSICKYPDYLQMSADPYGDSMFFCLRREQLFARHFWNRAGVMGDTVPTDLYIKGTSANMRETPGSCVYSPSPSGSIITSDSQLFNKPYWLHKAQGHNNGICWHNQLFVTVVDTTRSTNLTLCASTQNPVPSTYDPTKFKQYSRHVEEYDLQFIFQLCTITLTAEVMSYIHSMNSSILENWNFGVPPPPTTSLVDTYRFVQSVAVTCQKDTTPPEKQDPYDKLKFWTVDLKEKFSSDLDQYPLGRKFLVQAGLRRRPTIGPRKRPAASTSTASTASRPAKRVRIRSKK

[2] = biological target: T1, HPV45型衣壳蛋白L1病毒样颗粒(VLP)抗原 (HPV 45型); assay: sandwich ELISA, rabbit pAb R163 capture 1:500, mAb 1:20000; antigen 13.3 ug/ml, 2.5-fold series, step 6
[3] = biological target: T1, HPV45型衣壳蛋白L1病毒样颗粒(VLP)抗原 (HPV 45型); assay: sandwich ELISA, rabbit pAb R163 capture 1:500, mAb 1:20000; antigen 13.3 ug/ml, 2.5-fold series, step 9

B1: 杂交瘤细胞株7A5(CGMCC NO:45706)分泌的鼠源单克隆抗体 (antibody, V domains shown)
VH: QPGAELVKPGASVKLSCKASGYTFTSYWMHWVKQRPGQGLEWIGEINPSNGHTNYNEKFKSKATLTVDKSSSTAYMQLSSLTSEDSAVYYCAPCYGSSYDYYAMDYWGQGTSVTVSS
VL: DIVLTQSPASLAVSLGQRATISCRASQSVSTSSYSYMHWYQQKPGQPPKLLIKYASNLESGVPARFSGSGSGTDFTLNIHPVEEEDTATYYCQHSWEIPYTFGGGTKLEIK
notes: also called 鼠单抗7A5; 抗体7A5
Q: Which OD [1] does the source give for B1 here?
A: 0.068 OD and 0.072 OD

Q: What about the OD [2] of the same binder?
A: 0.614 OD and 0.773 OD

Q: What about the OD [3] of the same binder?
A: 0.106 OD

B2: 杂交瘤细胞株11G1(CGMCC NO:45707)分泌的鼠源单克隆抗体 (antibody, V domains shown)
VH: QVQLQQPGAELVKPGASVKLSCKASGYTFTSYWMHWVKRRPGQGLEWIGEINPSNGLTNYNEKFKSKGTLTVDKSSSAAFMHLSSLTSEDSAVYYCARFHGSDLYAMDYWGQGTSVTVSS
VL: B1 VL
notes: also called 鼠单抗11G1; 抗体11G1
Q: B2 was tested. Which OD [1] did it give?
A: 0.062 OD and 0.051 OD

Q: What about the OD [2] of the same binder?
A: 0.364 OD and 0.447 OD
